Experimental data taken from patent US20260049138A1 (Chugai, published 2026).
Where a chain is given by its changes, count along the chain named. In names and notes the source's numbering stands.

Molecular target: T1, CD3ε homodimer protein (human, UniProt P07766 23-126, limits assumed)
T1 construct: also called CD3 (CD3ε)
Experiment: SPR Biacore T200, CD3ε homodimer on chip;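 note: Light-chain single-residue variant antibodies injected over amine-coupled CD3ε homodimer on a CM4 chip at 25 °C, bound amount divided by that of the GLS3000-containing antibody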

T1 sequence (P07766 23-126 limits assumed): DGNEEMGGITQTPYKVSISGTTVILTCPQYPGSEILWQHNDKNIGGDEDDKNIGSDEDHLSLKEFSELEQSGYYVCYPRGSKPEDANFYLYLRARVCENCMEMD

B1: GLS3000 S27eQ one-arm antibody (antibody, human IgG1, kappa, L234A L235A, N297A, name in Kabat numbering)
heavy: QVQLVESGGGVVQPGRSLRLSCAASGFTFSNAWMHWVRQAPGKGLEWVAQIKAKSNNYATYYAESVKGRFTISRDDSKNSLYLQMNSLKTEDTAVYYCRYVHYGAYYGVDAWGQGTTVTVSSASTKGPSVFPLAPSSKSTSGGTAALGCLVKDYFPEPVTVSWNSGALTSGVHTFPAVLQSSGLYSLSSVVTVPSSSLGTQTYICNVNHKPSNTKVDKKVEPKSCDKTHTCPPCPAPEAAGGPSVFLFPPKPKDTLMISRTPEVTCVVVDVSHEDPEVKFNWYVDGVEVHNAKTKPREEQYASTYRVVSVLTVLHQDWLNGKEYKCKVSNKALPAPIEKTISKAKGQPREPQVYTLPPSRCELTKNQVSLSCAVKGFYPSDIAVEWESNGQPENNYKTTPPVLDSDGSFFLVSKLTVDKSRWQQGNVFSCSVMHEALHNHYTQKSLSLSPDYKDDDDK
chain: EPKSSDKTHTCPPCPAPELLGGPSVFLFPPKPKDTLMISRTPEVTCVVVDVSHEDPEVKFNWYVDGVEVHNAKTKPREEQYNSTYRVVSVLTVLHQDWLNGKEYKCKVSNKALPAPIEKTISKAKGQPREPQVCTLPPSRDELTKNQVSLWCLVKGFYPSDIAVEWESNGQPENNYKTTPPVLDSDGSFFLYSKLTVDKSRWQQGNVFSCSVMHEALHNRYTQKSLSLSP
light: DIVMTQSPLSLPVTPGEPASISCRSSQSLVHQNRNTYLHWYQQKPGQAPRLLIYKVSNRFSGVPDRFSGSGSGTDFTLKISRVEAEDVGVYYCGQGTQVPYTFGQGTKLEIKRTVAAPSVFIFPPSDEQLKSGTASVVCLLNNFYPREAKVQWKVDNALQSGNSQESVTEQDSKDSTYSLSSTLTLSKADYEKHKVYACEVTHQGLSSPVTKSFNRGEC
  ratio of amount bound vs unaltered GLS3000: 1.1

B2: GLS3000 S56A one-arm antibody (antibody, human IgG1, kappa, L234A L235A, N297A, name in Kabat numbering)
heavy: B1 heavy
chain: B1 chain
light: B1 light with Q32S, S61A
  ratio of amount bound vs unaltered GLS3000: 1.16

B3: GLS3000 S56P one-arm antibody (antibody, human IgG1, kappa, L234A L235A, N297A, name in Kabat numbering)
heavy: B1 heavy
chain: B1 chain
light: B1 light with Q32S, S61P
  ratio of amount bound vs unaltered GLS3000: 0.95

B4: GLS3000 S27eV one-arm antibody (antibody, human IgG1, kappa, L234A L235A, N297A, name in Kabat numbering)
heavy: B1 heavy
chain: B1 chain
light: B1 light with Q32V
  ratio of amount bound vs unaltered GLS3000: 1.08

B5: GLS3000 S56E one-arm antibody (antibody, human IgG1, kappa, L234A L235A, N297A, name in Kabat numbering)
heavy: B1 heavy
chain: B1 chain
light: B1 light with Q32S, S61E
  ratio of amount bound vs unaltered GLS3000: 0.71

B6: GLS3000 S56L one-arm antibody (antibody, human IgG1, kappa, L234A L235A, N297A, name in Kabat numbering)
heavy: B1 heavy
chain: B1 chain
light: B1 light with Q32S, S61L
  ratio of amount bound vs unaltered GLS3000: 1.02

B7: GLS3000 S56M one-arm antibody (antibody, human IgG1, kappa, L234A L235A, N297A, name in Kabat numbering)
heavy: B1 heavy
chain: B1 chain
light: B1 light with Q32S, S61M
  ratio of amount bound vs unaltered GLS3000: 1.05

B8: GLS3000 S56Y one-arm antibody (antibody, human IgG1, kappa, L234A L235A, N297A, name in Kabat numbering)
heavy: B1 heavy
chain: B1 chain
light: B1 light with Q32S, S61Y
  ratio of amount bound vs unaltered GLS3000: 1.46

B9: GLS3000 S56R one-arm antibody (antibody, human IgG1, kappa, L234A L235A, N297A, name in Kabat numbering)
heavy: B1 heavy
chain: B1 chain
light: B1 light with Q32S, S61R
  ratio of amount bound vs unaltered GLS3000: 1.36

B10: GLS3000 T31N one-arm antibody (antibody, human IgG1, kappa, L234A L235A, N297A, name in Kabat numbering)
heavy: B1 heavy
chain: B1 chain
light: B1 light with Q32S, T36N
  ratio of amount bound vs unaltered GLS3000: 0.32

B11: GLS3000 S52Q one-arm antibody (antibody, human IgG1, kappa, L234A L235A, N297A, name in Kabat numbering)
heavy: B1 heavy
chain: B1 chain
light: B1 light with Q32S, S57Q
  ratio of amount bound vs unaltered GLS3000: 1.05

B12: GLS3000 S52P one-arm antibody (antibody, human IgG1, kappa, L234A L235A, N297A, name in Kabat numbering)
heavy: B1 heavy
chain: B1 chain
light: B1 light with Q32S, S57P
  ratio of amount bound vs unaltered GLS3000: 0.33

B13: GLS3000 S56I one-arm antibody (antibody, human IgG1, kappa, L234A L235A, N297A, name in Kabat numbering)
heavy: B1 heavy
chain: B1 chain
light: B1 light with Q32S, S61I
  ratio of amount bound vs unaltered GLS3000: 0.99

B14: GLS3000 T31K one-arm antibody (antibody, human IgG1, kappa, L234A L235A, N297A, name in Kabat numbering)
heavy: B1 heavy
chain: B1 chain
light: B1 light with Q32S, T36K
  ratio of amount bound vs unaltered GLS3000: 1.04

B15: GLS3000 S56Q one-arm antibody (antibody, human IgG1, kappa, L234A L235A, N297A, name in Kabat numbering)
heavy: B1 heavy
chain: B1 chain
light: B1 light with Q32S, S61Q
  ratio of amount bound vs unaltered GLS3000: 1.04

B16: GLS3000 S56G one-arm antibody (antibody, human IgG1, kappa, L234A L235A, N297A, name in Kabat numbering)
heavy: B1 heavy
chain: B1 chain
light: B1 light with Q32S, S61G
  ratio of amount bound vs unaltered GLS3000: 0.92

B17: GLS3000 S56F one-arm antibody (antibody, human IgG1, kappa, L234A L235A, N297A, name in Kabat numbering)
heavy: B1 heavy
chain: B1 chain
light: B1 light with Q32S, S61F
  ratio of amount bound vs unaltered GLS3000: 1.32

B18: GLS3000 S52Y one-arm antibody (antibody, human IgG1, kappa, L234A L235A, N297A, name in Kabat numbering)
heavy: B1 heavy
chain: B1 chain
light: B1 light with Q32S, S57Y
  ratio of amount bound vs unaltered GLS3000: 1.12

B19: GLS3000 T31E one-arm antibody (antibody, human IgG1, kappa, L234A L235A, N297A, name in Kabat numbering)
heavy: B1 heavy
chain: B1 chain
light: B1 light with Q32S, T36E
  ratio of amount bound vs unaltered GLS3000: 0.49

B20: GLS3000 S27eR one-arm antibody (antibody, human IgG1, kappa, L234A L235A, N297A, name in Kabat numbering)
heavy: B1 heavy
chain: B1 chain
light: B1 light with Q32R
  ratio of amount bound vs unaltered GLS3000: 1.58

B21: GLS3000 S27eT one-arm antibody (antibody, human IgG1, kappa, L234A L235A, N297A, name in Kabat numbering)
heavy: B1 heavy
chain: B1 chain
light: B1 light with Q32T
  ratio of amount bound vs unaltered GLS3000: 0.97

B22: GLS3000 S56K one-arm antibody (antibody, human IgG1, kappa, L234A L235A, N297A, name in Kabat numbering)
heavy: B1 heavy
chain: B1 chain
light: B1 light with Q32S, S61K
  ratio of amount bound vs unaltered GLS3000: 1.46

B23: GLS3000 S56V one-arm antibody (antibody, human IgG1, kappa, L234A L235A, N297A, name in Kabat numbering)
heavy: B1 heavy
chain: B1 chain
light: B1 light with Q32S, S61V
  ratio of amount bound vs unaltered GLS3000: 0.95

B24: GLS3000 T31I one-arm antibody (antibody, human IgG1, kappa, L234A L235A, N297A, name in Kabat numbering)
heavy: B1 heavy
chain: B1 chain
light: B1 light with Q32S, T36I
  ratio of amount bound vs unaltered GLS3000: 0.97

B25: GLS3000 S27eW one-arm antibody (antibody, human IgG1, kappa, L234A L235A, N297A, name in Kabat numbering)
heavy: B1 heavy
chain: B1 chain
light: B1 light with Q32W
  ratio of amount bound vs unaltered GLS3000: 1.55

B26: GLS3000 S56W one-arm antibody (antibody, human IgG1, kappa, L234A L235A, N297A, name in Kabat numbering)
heavy: B1 heavy
chain: B1 chain
light: B1 light with Q32S, S61W
  ratio of amount bound vs unaltered GLS3000: 1.38

B27: GLS3000 S56N one-arm antibody (antibody, human IgG1, kappa, L234A L235A, N297A, name in Kabat numbering)
heavy: B1 heavy
chain: B1 chain
light: B1 light with Q32S, S61N
  ratio of amount bound vs unaltered GLS3000: 0.92

B28: GLS3000 S52A one-arm antibody (antibody, human IgG1, kappa, L234A L235A, N297A, name in Kabat numbering)
heavy: B1 heavy
chain: B1 chain
light: B1 light with Q32S, S57A
  ratio of amount bound vs unaltered GLS3000: 0.93

B29: GLS3000 S56T one-arm antibody (antibody, human IgG1, kappa, L234A L235A, N297A, name in Kabat numbering)
heavy: B1 heavy
chain: B1 chain
light: B1 light with Q32S, S61T
  ratio of amount bound vs unaltered GLS3000: 0.97

B30: GLS3000 T31D one-arm antibody (antibody, human IgG1, kappa, L234A L235A, N297A, name in Kabat numbering)
heavy: B1 heavy
chain: B1 chain
light: B1 light with Q32S, T36D
  ratio of amount bound vs unaltered GLS3000: 0.23

B31: GLS3000 S56H one-arm antibody (antibody, human IgG1, kappa, L234A L235A, N297A, name in Kabat numbering)
heavy: B1 heavy
chain: B1 chain
light: B1 light with Q32S, S61H
  ratio of amount bound vs unaltered GLS3000: 1.05

B32: GLS3000 S56D one-arm antibody (antibody, human IgG1, kappa, L234A L235A, N297A, name in Kabat numbering)
heavy: B1 heavy
chain: B1 chain
light: B1 light with Q32S, S61D
  ratio of amount bound vs unaltered GLS3000: 0.77

B33: GLS3000 S27eY one-arm antibody (antibody, human IgG1, kappa, L234A L235A, N297A, name in Kabat numbering)
heavy: B1 heavy
chain: B1 chain
light: B1 light with Q32Y
  ratio of amount bound vs unaltered GLS3000: 1.2

B34: GLS3000 S52D one-arm antibody (antibody, human IgG1, kappa, L234A L235A, N297A, name in Kabat numbering)
heavy: B1 heavy
chain: B1 chain
light: B1 light with Q32S, S57D
  ratio of amount bound vs unaltered GLS3000: 0.63
